The record followed here is PMC3528738.

For this assay, the target named is MPERp (HIV-1 (HXBc2 isolate)). Nature of the assay: cross-linking; peptides (10 µg) in solution incubated with 20 µM BS3 for 1 h at 37°C, TCA precipitation, Tricine SDS-PAGE; detection by Western blot with MAb2F5 or by NBD fluorescence in the gel.

One may read the stoichiometry N as the number of molecules, sites or subunits per partner or assembly.

MPERp (peptide), sequence (P03375 656-683): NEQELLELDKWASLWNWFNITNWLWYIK

MPERp (peptide) returned a stoichiometry N of 2.
